According to patent US20030134774A1, “Methods for inhibiting cardiac disorders” (priority 2001, published 2003):

Key:
Format in all cases: cell-based, rat
p38-MAPK = assay: Phospho-p38 MAP kinase Western blot in cardiomyocytes
Experimental: (§1) rPMT promotes the activation of ERK1/2, JNK and p38-MAPK cascades. Incubations were for 24 hr in the presence of the indicated concentrations of rPMT. PMA (100 nM, 5 min) and sorbitol ([…], 5 min) were included as positive controls. Cell lysates were subjected to SDS-PAGE followed by Western blotting as described in Methods below. Phosphorylated forms of ERK1/2 (A), p38 MAP kinase (B) or JNK (C) were detected by specific anti-phospho-ERK1/2, -p38 MAP kinase or -JNK antibodies, respectively. Blots were stripped and subjected to immunoblot analysis with total ERK1/2 or p38 MAP kinase to normalize for minor variations in protein loading (Panels A and B). Top: representative autoradiograms (with each lane from a single gel exposed for the same duration). Bottom: quantification of each series of experiments (n=3).
(§2) Specific immunoreactivity for individual PKC isoforms was quantified according to methods described previously. For assays of MAPKs and AKT, cells were exposed to test agents as indicated in individual experimental protocols, washed three times with ice-cold calcium/magnesium-free Dulbecco's PBS (pH 7.1), scraped into ice-cold extraction buffer [20 mM β-glycerophosphate pH 7.5, 20 mM sodium fluoride, 2 mM EDTA, 0.2 mM sodium vanadate, 10 μg/ml aprotinin, 25 μg/ml leupeptin, 50 μg/ml PMSF, and 0.3% (v/v) β-mercaptoethanol], lysed by sonication, and centrifuged at 10,000 g for 10 min at 4° C. The supernatant was diluted in SDS-PAGE sample buffer, boiled for 5 min, and stored at −70° C. Western blot analysis was performed with antibodies that are selective for the phosphorylated (activated) forms of ERK1/2, p38-MAPK, JNK, AKT, and pan-PKC according to manufacturer's instructions. For each panel in each Figure, the results are from a single gel exposed for a uniform duration. Bands were detected by enhanced chemiluminescence and blots were quantified by laser scanning densitometry.

PLC = assay: Inositol phosphate production (PLC activation) in cardiomyocyte cultures
Experimental: rPMT activates PLC. Cardiomyocyte cultures were incubated in media containing 3 μCi/ml [^3H] myoinositol for 96 hr, with 400 ng/ml rPMT for the indicated intervals at the end of this interval (Panel A) or the indicated concentration of rPMT included in the culture medium during the final 24 hr of culture (Panel B). This was followed by 30 min in the presence of 10 mM LiCl to inhibit the hydrolysis of inositol phosphate metabolites. Results are expressed as cpm over basal (mean±SEM; n=3) from a single experiment, and are representative of results obtained in 3 separate culture preparations.
Cardiomyocytes grown in six-well plates were labeled with 3 μCi/ml [^3H]myoinositol for 96 hr. Treatment with rPMT was during the final 24 hr of this interval. Cells were washed to remove unincorporated radioisotope and then incubated for an additional 20 min with HEPES-buffered saline containing 10 mM LiCl. Cells were lysed with 1.05 mls of chloroform/methanol/6M HCl (500:1000:3) and harvested, and lipids were extracted for 30 min at room temperature. 1.05 mls of chloroform/water (1:2) were added, and the mixture was vortexed and centrifuged at 2000 g for 5 min to separate the phases. The aqueous phase was transferred to Dowex anion-exchange columns, and inositol phosphates were eluted sequentially according to standard methods as described previously (13).

ERK1/2 = assay: Phospho-ERK1/2 Western blot in cardiomyocytes
Experimental: as §1
rPMT transactivation of the EGF receptor in cardiac fibroblasts, but not cardiomyocytes. Neonatal rat cardiomyocytes (Panel A) and cardiac fibroblasts (Panel B) were treated with rPMT (400 ng/ml) for 24 hr or EGF (50 ng/ml) for 5 min without or with AG1478 (2 μM, starting 30 min prior to stimulation). Cell lysates were subjected to SDS-PAGE followed by Western blotting with the anti-phospho-ERK1/2 antibody. Data are from a representative gel, with similar results obtained in 3 separate experiments.
as §2

[1] = 24 hr, indicated concentrations
[2] = increased progressively for 24 hr

B1: rPMT: recombinant Pasteurella multocida toxin, a Gαq agonist used as pharmacological probe (protein, UniProt P17452 1-1285, looked up)
Dermonecrotic toxin: MKTKHFFNSDFTVKGKSADEIFRRLCTDHPDKQLNNVKWKEVFINRFGQMMLDTPNPRKIVEKIINEGLEKQGLKNIDPETTYFNIFSSSDSSDGNVFHYNSLSESYRVTDACLMNIFVERYFDDWDLLNSLASNGIYSVGKEGAYYPDHDYGPEYNPVWGPNEQIYHSRVIADILYARSVWDEFKKYFMEYWQKYAQLYTEMLSDTFLAMAIQQYTRQTLTDEGFLMVCNTYYGNKEEVQITLLDIYGYPSTDIICIEQKGLPTPKVILYIPGGTQPFVEFLNTDDLKQWIAWHLKDNKHMVAFRKHFSLKQRQEGETFTGIDKALQYIAEESPEWPANKYILYNPTHLETENLFNIMMKRTEQRMLEDSDVQIRSNSEATRDYALSLLETFISQLSAIDMLVPAVGIPINFALSATALGLSSDIVVNGDSYEKRKYGIGSLVQSALFTGINLIPVISETAEILSSFSRTEEDIPAFFTEEQALAQRFEIVEEELHSISPDDPPREITDENLHKIRLVRLNNENQPLVVLRRLGGNKFIRIEPITFQEIKGSLVSEVINPVTNKTYYVSNAKLLGGSPYSPFRIGLEGVWTPEVLKARASVIGKPIGESYKRILAKLQRIHNSNILDERQGLMHELMELIDLYEESQPSSERLNAFRELRTQLEKALYLPEMEALKKQILQIPNKGSGAARFLLRTAMNEMAGKTSESTADLIRFALQDTVISAPFRGYAGAIPEAIDFPVKYVIEDISVFDKIQTNYWELPAYESWNEGSNSALLPGLLRESQSKGMLSKCRIIENSLYIGHSYEEMFYSISPYSNQVGGPYELYPFTFFSMLQEVQGDLGFEQAFATRNFFNTLVSDRLSLMENTMLLTESFDYTPWDAIYGDINYDEQFAAMSINERIEKCMNTYRGVAFQNSSKSIDFFLNNLTTFIDNGLTEIAISDLPYDIVQQEISQFLQGSNEWKTLDAMLFNLDKGDINGAFRKLLQSAKDNNIKFRAIGHSDNSVPPFNNPYKSLYYKGNIIAEAIEKLDREGQKFVVFADSSLLNSTPGTGRPMPGLVQYLKIPATVVDSDGAWQFLPDVASSRVPIEVTELENWQVLTPPQGKILGLKQFKLTAGFPTEQSRLPLLENSVSEDLREELMQKIDAIKNDVKMNSLVCMEAGSCDSVSPKVAARLKDMGLEAGMGASITWWRREGGMEFSHQMHTTASFKFAGKEFAVDASHLQFVHDQLDTTILILPVDDWALEIAQRNRAINPFVEYVSKTGNMLALFMPPLFTKPRLTRAL
- expression of total p38-MAPK protein (p38-MAPK): does not significantly alter
- signaling through the p38-MAPK cascade (phosphorylation of terminal kinase) (p38-MAPK; [1]): dose-dependent increases
- time at which p38-MAPK activation is detectable (p38-MAPK; [2]): 1 h
- magnitude of p38-MAPK activation (p38-MAPK; rPMT 24 hr, sorbitol 5 min positive control): more modest
- toxin concentration giving maximal activation of inositol phosphate accumulation (PLC; at 24 hr, batches vary): 400 ng/mL
- inositol phosphate accumulation (PLC; cardiomyocytes): promotes inositol phosphate accumulation
- time at which the inositol phosphate response is detectable (PLC; cardiomyocytes, 400 ng/ml): 1 h
- time at which the inositol phosphate response is maximal (PLC; cardiomyocytes, 400 ng/ml): 48 h
- expression of total ERK1/2 protein (ERK1/2): does not significantly alter
- signaling through the ERK1/2 cascade (phosphorylation of terminal kinase) (ERK1/2; [1]): dose-dependent increases
- magnitude of ERK1/2 activation (ERK1/2; comparable to acute stimulation with PMA): quite robust
- time at which ERK1/2 activation is detectable (ERK1/2; [2]): 1 h
